This is an account of results in patent publication US20240091274A1.

This test has as its target Human CD52 (human) (UniProt P31358). The test can be described thus: cell-based or functional assay.

Chain of Human CD52 (human) (P31358 25-61 limits assumed): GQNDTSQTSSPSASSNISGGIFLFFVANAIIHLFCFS

alemtuzumab (antibody) gave a CDC killing of human HIP iECs (CD52) with ABO-matched allogeneic serum (XCelligence) of 0.001 µg/ml and a CDC killing of mouse B6 HIP iECs (CD52) with syngeneic B6 serum (XCelligence) of 0.0001 µg/mL.
